# B1: wild-type VD1: VD1 domain of mouse vinculin; in simulations vinculin head domain 1, residues 1–252 (protein, UniProt Q64727 1-252, looked up, fragment)
# chain: MPVFHTRTIESILEPVAQQISHLVIMHEEGEVDGKAIPDLTAPVAAVQAAVSNLVRVGKETVQTTEDQILKRDMPPAFIKVENACTKLVQAAQMLQSDPYSVPARDYLIDGSRGILSGTSDLLLTFDEAEVRKIIRVCKGILEYLTVAEVVETMEDLVTYTKNLGPGMTKMAKMIDERQQELTHQEHRVMLVNSMNTVKELLPVLISAMKIFVTTKNSKNQGIEEALKNRNFTVEKMSAEINEIIRVLQLTS
# modifications: VD1 domain
# Columns and labels:
# [1] = Size exclusion chromatography, oligomeric state; assay type: physicochemical; settings: 100 μL at 100 μM, Superdex S200 Increase 10/300, PBS pH 7.4 with 5 mM DTT, 280 nm
# Protocol: Samples of 100 μL protein at 100 μM protein concentration were injected onto a Superdex G-200 increase 10/300 (GE Healthcare) at 0.75 mL/min in PBS pH 7.4 (supplemented with 5 mM DTT) using an AKTA Pure (GE Healthcare), monitoring absorbance at 280 nm.
# [2] = Circular dichroism thermal denaturation; assay type: physicochemical; settings: 0.45 mg/mL protein, PBS pH 7.4, 222 nm, 20–90°C
# Protocol: The VD1 domain of mouse vinculin (mVD1) was obtained as a codon-optimized synthetic gene in pET151 (GeneArt). The Q19S point mutation was introduced by site-directed mutagenesis and the sequence was verified.
# Proteins were purified by nickel-affinity chromatography, followed by anion exchange chromatography. Briefly, cells were thawed, supplemented with 1 mM PMSF and 0.2% v/v Triton X-100 and lysed by sonication. Cell debris were removed by centrifugation and the supernatant was filtered and loaded onto a 5 mL HisTrap HP column (Cytiva) using an AKTA Start (GE Healthcare). The column was washed with buffer containing 50 mM Tris-HCl pH 8, 600 mM NaCl, 30 mM imidazole, 4 mM MgCl2, 4 mM ATP, 5% v/v glycerol, 0.2% v/v Triton X-100 and bound protein was eluted across a 75 mL linear gradient of 0–300 mM Imidazole. Fractions containing mVD1 were pooled, supplemented with AcTEV protease (Invitrogen) to remove the His-Tag and dialyzed against 20 mM Tris-HCl pH 8, 50 mM NaCl. Protein was loaded onto a 5 mL HiTrap Q (Cytiva), eluted across a 75 mL linear gradient of 50–750 mM NaCl, dialyzed against phosphate buffered saline (PBS) pH 7.4, snap-frozen in liquid nitrogen and stored at -80°C.
# Circular dichroism was performed using a JASCO J-715 spectropolarimeter with 0.45 mg/mL protein samples in PBS pH 7.4. […]
# [3] = system: talin1 H12 R3; experiment: Biosensor analysis (biolayer interferometry, Octet RED384); assay type: binding; settings: immobilized biotinylated H12 R3, VD1 16 μM to 15.6 nM, 28°C, pH 7.4, association 600 s, dissociation 1200 s, global fit
# Protocol: Solid-phase synthesized talin1 H12 R3 (C-[…]) with free N-terminal cysteine was labelled with maleimide-PEG2-biotin (Thermo Fisher Scientific A39261). Lyophilized peptide was dissolved in PBS pH 7.4 and reduced at 100 μM peptide concentration with 250 μM TCEP in PBS supplemented with 0.25% Triton-X100 for 10 min at RT. Maleimide-PEG2-biotin was added at 5-fold molar excess (500 μM) and incubation continued for 2 hours at RT, mixing at 30 rpm. The reaction was quenched with β-mercaptoethanol added at 5-fold molar excess over maleimide-PEG2-biotin (2.5 mM) for 20 min at RT. Biotin-labelled peptide was purified using a PD10 desalting column (G25 resin, Cytiva Life Sciences) equilibrated with PBS. Elution fractions containing biotinylated peptide were identified using PageBlue-staining (Thermo Fisher Scientific) of glutaraldehyde-fixed (5%, 2 hours) Bolt BisTris Plus 4–12% SDS-PAGE gels (Thermo Fisher Scientific). The concentration of pooled elution fractions was determined using Pierce BCA microplate assay (Thermo Fisher Scientific) measured with Victor Nivo at 562 nm (PerkinElmer). Aliquoted peptide was flash-frozen with liquid nitrogen and stored at -80°C.
# The binding and dissociation kinetics of recombinant WT and Q19S vinculin VD1 to talin1 H12 R3 were determined using ForteBio Octet RED384. […]
# [4] = target: mouse talin1 R1 VBS (H4) peptide; experiment: Fluorescence polarisation binding of VD1 to VBS peptide; settings: fluorescein-labelled talin1 H4 peptide 700 nM, 2-fold serial dilution of protein, 25°C, triplicate, one-site total binding
# Protocol: The mouse talin1 R1 VBS (H4) peptide (C-[…]) was synthesized by GLBiochem (Shanghai) with a non-native, N-terminal cysteine residue. The peptide was coupled with a maleimide-fluorescein dye (Thermo Fisher Scientific) following the manufacturers protocol. Assays were performed in triplicate with a 2-fold serial dilution of protein, with VBS peptide at 700 nM. Fluorescence polarization was measured using a CLARIOstar plate reader (BMGLabTech) at 25°C (excitation: 482 ± 8 nm; emission: 530 ± 20 nm). Data were analyzed using GraphPad Prism 8 software and Kd values were generated using the one-site total binding equation.
molecule,measurement,setting,value
B1,oligomeric state in solution,[1],monomeric in solution
same,"melting temperature, Tm",[2],60 °C
same,"binding and dissociation kinetics (KD, kon, koff)",[3],did not reveal significant differences in the binding or dissociation kinetics
same,Kd,[4],350 nM

# — PMC11333002, “Molecular dynamics simulations reveal how vinculin refolds partially unfolded talin rod helices to stabilize them against mechanical force” (PLOS Computational Biology, 2024)
